Values of other authors as cited in article PMC3760879.

Biological target: Asp97 (UniProt position 97, VFRYIDWLLTV)
Details: dark/ground state implied (protonation of the acceptor group at neutral pH); not explicitly stated

Proteorhodopsin (PR) (uncultured marine gamma-proteobacterium (the article says only 'γ-proteobacteria'))
pKa: around 7.2
